Laboratory results published in patent US20250320312A1 (OXITOPE PHARMA B V, published 2025).

T1: Peptide 8: Biotin-AEAAAKEAAAKEAAAKEAAAKAAA-Tyr-acid (N-terminal biotin; C-terminal acid)
T1 construct: control peptide without PC
T1 peptide: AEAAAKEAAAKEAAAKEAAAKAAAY

T2: Peptide 4: Biotin-AGGGGSGGGGSGGGGSAAA-Tyr-acid (N-terminal biotin; C-terminal acid)
T2 construct: control peptide without PC
T2 peptide: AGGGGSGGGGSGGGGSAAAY

T3: Peptide 8: Biotin-AEAAAKEAAAKEAAAKEAAAKAAA-Tyr-acid (N-terminal biotin; C-terminal acid)
T3 construct: Control peptide without PC
T3 peptide: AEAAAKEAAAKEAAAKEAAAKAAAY

T4: Peptide 4: Biotin-AGGGGSGGGGSGGGGSAAA-Tyr-acid (N-terminal biotin; C-terminal acid)
T4 construct: Control peptide without PC
T4 peptide: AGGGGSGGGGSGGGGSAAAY

B1: PcOxP_DB03_G07 (scFv, V domains shown)
VH: EVQLLESGGGLVQPGGSLRLSCAASGFTFSDHYMEWVRQAPGKGLEWVAASRNKANDYTTEYADSVKGRFTISRDNSKNTLYLQMNSLRAEDTAVYYCARDYYGQSYWYFDVWGQGTLVTVSS
VL: DIQMTQSPSSLSASVGDRVTITCTASESLYSSKHKVHYLAWYQQKPGKAPKLLIYGASNRYIGVPSRFSGSGSGTDFTLTISSLQPEDFATYYCAQFYSYPLTFGGGTKVEIK
notes: scFv in periplasmic extract
B2: PcOxP_DB04_G05 (scFv, V domains shown)
VH: EVQLLESGGGLVQPGGSLRLSCAASGFTFSDFYMEWVRQAPGKGLEWVAASRNKANDYTTEYADSVKGRFTISRDNSKNTLYLQMNSLRAEDTAVYYCARDFYGSSYWYFDVWGQGTLVTVSS
VL: DIVMTQSPDSLAVSLGERATINCTASESLYSSKHKVHYLAWYQQKPGQPPKLLIYGASNRYIGVPDRFSGSGSGTDFTLTISSLQAEDVAVYYCAQFYSYPLTFGGGTKVEIK
notes: scFv in periplasmic extract
B3: PcOxP_DB01_H08 (scFv, V domains shown)
VH: EVQLLESGGGLVQPGGSLRLSCAASGFTHSDFYMEWVRQAPGKGLEWVAASRNKANDYTTEYADSVKGRFTISRDNSKNTLYLQMNSLRAEDTAVYYCARDYYGSSYWYFDVWGQGTLVTVSS
VL: DIQMTQSPSSLSASVGDRVTITCRASESISSSKHKHYLAWYQQKPGKAPKLLIYGASNRYIGVPSRFSGSGSGTDFTLTISSLQPEDFATYYCAQFYVYPLTFGGGTKVEIK
notes: scFv in periplasmic extract
B4: PcOxP_DB02_F06 (scFv, V domains shown)
VH: EVQLLESGGGLVQPGGSLRLSCAASGFTFSDEYMEWVRQAPGKGLEWVAASRNKANDFTTEYADSVKGRFTISRDNSKNTLYLQMNSLRAEDTAVYYCARDFYGSSYWYFDVWGQGTLVTVSS
VL: DIVMTQSPDSLAVSLGERATINCTASESIYSSKHKVHYLAWYQQKPGQPPKLLIYGASNRYIGVPDRFSGSGSGTDFTLTISSLQAEDVAVYYCAQFYSYPLTFGGGTKVEIK
notes: scFv in periplasmic extract
B5: PcOxP_DB02_F11 (scFv, V domains shown)
VH: EVQLLESGGGLVQPGGSLRLSCAASGTTFSDFYMEWVRQAPGKGLEWVAASRNKYNDYTTEYADSVKGRFTISRDNSKNTLYLQMNSLRAEDTAVYYCARDYYGSSYWYFDVWGQGTLVTVSS
VL: DIVMTQSPDSLAVSLGERATINCTASESLYSSKHKVHYLAWYQQKPGQPPKLLIYGASNRYPGVPDRFSGSGSGTDFTLTISSLQAEDVAVYYCAQFYSYPLTFGGGTKVEIK
notes: scFv in periplasmic extract
B6: PcOxP_DB02_G02 (scFv, V domains shown)
VH: EVQLLESGGGLVQPGGSLRLSCAASGFGFSDFYMEWVRQAPGKGLEWVAASRNKANDYTTEYADSVKGRFTISRDNSKNTLYLQMNSLRAEDTAVYYCARDYYGSSYWYFDVWGQGTLVTVSS
VL: DIVMTQSPDSLAVSLGERATINCTASESLYSSKHKVHYLAWYQQKPGQPPKLLIYGASNRYSGVPDRFSGSGSGTDFTLTISSLQAEDVAVYYCAQFYSYPLTFGGGTKVEIK
notes: scFv in periplasmic extract
B7: PcOxP_DB02_E12 (scFv, V domains shown)
VH: EVQLLESGGGLVQPGGSLRLSCAASGFGFSDFYMEWVRQAPGKGLEWVAASRNKANDYTTEYADSVKGRFTISRDNSKNTLYLQMNSLRAEDTAVYYCARDYYGSSYWYFDVWGQGTLVTVSS
VL: DIVMTQSPDSLAVSLGERATINCTASESLYSSKHKVHYLAWYQQKPGQPPKLLIYGASNRYIGVPDRFSGSGSGTDFTLTISSLQAEDVAVYYCAEFYSYPLTFGGGTKVEIK
notes: scFv in periplasmic extract
B8: PcOxP_DB02_G05 (scFv, V domains shown)
VH: EVQLLESGGGLVQPGGSLRLSCAASGFTFSDFYMEWVRQAPGKGLEWVAASRNKANDYTTEYADSVKGRFTISRDNSKNTLYLQMNSLRAEDTAVYYCARDYYGSSHWYFDVWGQGTLVTVSS
VL: DIVMTQSPDSLAVSLGERATINCTASESLYSSKHKLHYLAWYQQKPGQPPKLLIYGASNRYIGVPDRFSGSGSGTDFTLTISSLQAEDVAVYYCGQFYSYPLTFGGGTKVEIK
notes: scFv in periplasmic extract
B9: PcOxP_DB02_F10 (scFv, V domains shown)
VH: EVQLLESGGGLVQPGGSLRLSCAASGFTFSDQYMEWVRQAPGKGLEWVAASRNKANDYTTEYADSVKGRFTISRDNSKNTLYLQMNSLRAEDTAVYYCARDYYGSSYWYFDVWGQGTLVTVSS
VL: DIVMTQSPDSLAVSLGERATINCTSSQSVLSSKHNKNYLAWYQQKPGQPPKLLIYGASNRYWGVPDRFSGSGSGTDFTLTISSLQAEDVAVYYCAQFYSYPLTFGGGTKVEIK
notes: scFv in periplasmic extract
B10: PcOxP_DB02_F04 (scFv, V domains shown)
VH: EVQLLESGGGLVQPGGSLRLSCAASGFTGSDFYMEWVRQAPGKGLEWVAASRNSGNSYTTAYADSVKGRFTISRDNSKNTLYLQMNSLRAEDTAVYYCARDYFGSSYWYFDVWGQGTLVTVSS
VL: DIVMTQSPDSLAVSLGERATINCTASESLYSSKHKVHYLAWYQQKPGQPPKLLIYGASNRYIGVPDRFSGSGSGTDFTLTISSLQAEDVAVYYCAQFYSYPLTFGGGTKVEIK
notes: scFv in periplasmic extract
B11: PcOxP_DB02_H04 (scFv, V domains shown)
VH: EVQLLESGGGLVQPGGSLRLSCAASGFTFSDEYMEWVRQAPGKGLEWVAASRNKANDYTTEYADSVKGRFTISRDNSKNTLYLQMNSLRAEDTAVYYCARDYYGSSYWYFDVWGQGTLVTVSS
VL: DIVMTQSPDSLAVSLGERATINCTASESLYSSKHKVVYLAWYQQKPGQPPKLLIYGASNRYIGVPDRFSGSGSGTDFTLTISSLQAEDVAVYYCAQFYFYPLTFGGGTKVEIK
notes: scFv in periplasmic extract
B12: PcOxP_DB02_F09 (scFv, V domains shown)
VH: EVQLLESGGGLVQPGGSLRLSCAASGFQFSDFYMEWVRQAPGKGLEWVAASRNKGNSYTTAYADSVKGRFTISRDNSKNTLYLQMNSLRAEDTAVYYCARDYYGSSYWYFDVWGQGTLVTVSS
VL: DIVMTQSPDSLAVSLGERATINCTASESLYSSKHKVHYLAWYQQKPGQPPKLLIYGASNRYSGVPDRFSGSGSGTDFTLTISSLQAEDVAVYYCAQFYSYPLTFGGGTKVEIK
notes: scFv in periplasmic extract
B13: PcOxP_DB02_G04 (scFv, V domains shown)
VH: EVQLLESGGGLVQPGGSLRLSCAASGFTFSDYYMEWVRQAPGKGLEWVAASRWKANDYTTEYADSVKGRFTISRDNSKNTLYLQMNSLRAEDTAVYYCARDYYGSSYWYFDVWGQGTLVTVSS
VL: DIVMTQSPDSLAVSLGERATINCKASQSVLYSKNKKHYLAWYQQKPGQPPKLLIYGASNRQIGVPDRFSGSGSGTDFTLTISSLQAEDVAVYYCAQFYVYPLTFGGGTKVEIK
notes: scFv in periplasmic extract

Key:
Assay in all cases: scFv ELISA
BSA = BSA (UniProt P02769)
[1] = target: Peptide 5: Biotin-…-[Tyr(PC)]-acid
[2] = target: Peptide 1: Biotin-…-[Tyr(PC)]-acid
[3] = target: T1, Peptide 8: …
Outline: (§1)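 Bound scFv was read as OD450 after HRP–anti-V5 detection, TMB development and HCl stop. PPE with BSA was incubated 1 h at RT on BSA-blocked wells coated overnight at 4° C. with peptide, or on streptavidin wells loaded 1 h with biotinylated PC-peptides at 1 μg/mL.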

[4] = target: T2, Peptide 4: …
Outline: as §1

[5] = target: T3, Peptide 8: …
Outline: as §1

[6] = target: T4, Peptide 4: …
Outline: as §1

Chain of BSA (P02769 25-607 limits assumed): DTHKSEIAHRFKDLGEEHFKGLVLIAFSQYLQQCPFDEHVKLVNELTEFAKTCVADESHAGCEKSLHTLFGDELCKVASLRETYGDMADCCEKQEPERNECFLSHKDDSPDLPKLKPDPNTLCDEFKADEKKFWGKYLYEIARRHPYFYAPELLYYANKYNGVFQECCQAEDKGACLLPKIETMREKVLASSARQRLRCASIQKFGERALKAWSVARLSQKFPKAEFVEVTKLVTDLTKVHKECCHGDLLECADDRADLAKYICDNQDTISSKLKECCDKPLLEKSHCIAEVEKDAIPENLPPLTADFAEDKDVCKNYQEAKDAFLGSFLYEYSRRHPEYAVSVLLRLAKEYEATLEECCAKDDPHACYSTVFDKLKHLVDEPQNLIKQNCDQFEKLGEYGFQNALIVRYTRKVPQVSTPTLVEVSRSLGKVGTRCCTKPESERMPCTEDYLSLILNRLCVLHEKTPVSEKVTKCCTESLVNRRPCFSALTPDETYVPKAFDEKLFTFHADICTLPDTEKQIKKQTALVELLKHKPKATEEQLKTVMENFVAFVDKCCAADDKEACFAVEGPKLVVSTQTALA

Row | Binder | OD450 (BSA) [OD450] | OD450 [1] [OD450] | OD450 [2] [OD450] | OD450 [3] [OD450] | OD450 [4] [OD450] | OD450 [5] [OD450] | OD450 [6] [OD450]
1 | B1 | 0.1 | 1.67 | 2.18 | 0.05 | 0.06 |  | 
2 | B2 | 0.07 | 1.67 | 1.2 |  |  | 0.05 | 0.05
3 | B3 | 0.09 | 0.85 | 0.56 | 0.06 | 0.06 |  | 
4 | B4 | 0.06 | 0.45 | 0.16 |  |  | 0.04 | 0.04
5 | B5 | 0.08 | 0.66 | 0.23 |  |  | 0.04 | 0.04
6 | B6 | 0.06 | 1.13 | 1.01 |  |  | 0.04 | 0.04
7 | B7 | 0.06 | 0.58 | 0.26 |  |  | 0.06 | 0.05
8 | B8 | 0.11 | 1.8 | 1.49 |  |  | 0.07 | 0.05
9 | B9 | 0.09 | 1.2 | 0.51 |  |  | 0.04 | 0.05
10 | B10 | 0.09 | 0.74 | 0.47 |  |  | 0.05 | 0.04
11 | B11 | 0.06 | 0.2 | 0.22 |  |  | 0.04 | 0.05
12 | B12 | 0.08 | 0.93 | 0.39 |  |  | 0.04 | 0.04
13 | B13 | 0.11 | 0.7 | 0.32 |  |  | 0.05 | 0.05
